Results from patent US20190177416A1 (NANOMAB TECHNOLOGY, published 2019).

biological target: T1, human PD-L1 protein (coated antigen) (human, UniProt Q9NZQ7 19-238, limits assumed); assay: PE-ELISA, crude extract on coated PD-L1
T1 construct: Construct not described; also called PD-L1 antigen; antigenic protein PD-L1
Description: (1) From the cell culture dishes containing phage after 3-4 rounds of screening in Example 2, 1000 individual colonies were selected and inoculated into TB medium containing 100 μg/ml of ampicillin (1 liter of TB medium contains 2.3 g of potassium dihydrogen phosphate, 12.52 g of dipotassium hydrogen phosphate, 12 g of peptone, 24 g of yeast extract, 4 ml of glycerol), after growth to log phase, add a final concentration of […] of IPTG, culture at 28° C. overnight. (2) The crude antibody was obtained by the infiltration method, and the antibody was transferred to an antigen-coated ELISA plate and placed at room temperature for 1 hour. (3) Unbound antibody was washed away with PBST, and a mouse anti-HA tag antibody (anti-mouse anti-HA antibody, purchased from Beijing Kangwei Century Biotechnology Co., Ltd.) was added and placed at room temperature for 1 hour. (4) Unbound antibody was washed away with PBST, and anti-mouse alkaline phosphatase conjugate (goat anti-mouse alkaline phosphatase-labeled antibody, purchased from Amytech Co., Ltd.) was added and placed at room temperature for 1 hour. (5) Wash the unbound antibody with PBST, add alkaline phosphatase coloring solution, and read the absorbance at 405 nm on an ELISA apparatus. (6) When the OD value of the sample well is more than 3 times the OD value of the control well (Ratio+/−>3), it is judged as a positive clone hole. (7) The bacteria of the positive clone well were shaken in a LB liquid containing 100 μg per ml to extract a plasmid and perform sequencing.

T1 sequence (Q9NZQ7 19-238 limits assumed): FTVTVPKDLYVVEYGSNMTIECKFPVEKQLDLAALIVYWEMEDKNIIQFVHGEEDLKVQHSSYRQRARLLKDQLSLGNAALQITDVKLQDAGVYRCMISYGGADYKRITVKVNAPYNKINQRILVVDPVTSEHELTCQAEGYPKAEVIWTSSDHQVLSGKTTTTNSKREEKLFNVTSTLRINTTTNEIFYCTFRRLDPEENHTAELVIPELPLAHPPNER

| Binder | OD ratio (experimental group (A405 nm)/control group (A405 nm)) |
| --- | --- |
| SEQ ID NO 19 (VHH, pMECS-expressed; also called VHH numbered 19) VHH: QVQLQESGGGSVQTGGSLRLSCAASTSIYSNNYMAWFSQAPGKGREGVAAVYIGDGRPYYADSVKGRFTISLDSAKNTVYLQMNSLKPEDTAMYYCAAAPGPLSRNYWYTSANYDYWGQGTQVTVSS | > 20 |
| SEQ ID NO 16 (VHH, pMECS-expressed; also called VHH numbered 16) VHH: QVQLQESGGGSVQTGGSLRLSCAASPSIYSNNYMAWFSQAPGKGREGVAAVYIGDGRPYYADSVKGRFTISLDSAKNTVYLQMNSLKPEDTAMYYCAAAPGPLSRNYWYTSANYDYWGQGTQVTVSS | > 20 |
| SEQ ID NO 22 (VHH, pMECS-expressed; also called VHH numbered 22) VHH: QVQLQESGGGSVQTGGSLRLSCAASTSIYSNNYMAWFSQAPRKGREGVAAVYIGDGRPYYADSVKGRFTISLDSAKNTVYLQMNSLKPEDTAMYYCAAAPGPLSHNYWYTSANYDYWGQGTQVTVSS | > 20 |
| SEQ ID NO 27 (VHH, pMECS-expressed; also called VHH numbered 27) VHH: QVQLQESGGGSVQTGGSLRLSCTASTSIYSNNYMAWFSQSPGKGREGVAAVYMDDGRPYYADSVKGRFTISLDSAKNTMYLQMNSLKPEDTAMYYCAAAPGPLSRNYWYTSANYDYWGQGTQVTVSS | > 20 |
| SEQ ID NO 40 (VHH, pMECS-expressed; also called VHH numbered 40) VHH: QVQLQESGGGSVQTGGSLRLSCAASTSIYSNNYMAWFSQAPGKGREGVAALYIGDGRPYYADSVKGRFTIALDSAKNTVYLQMNGLKPEDTAMYYCAAAPGPLKHNYWYTSANYDYWGQGTQVTVSS | > 20 |
| SEQ ID NO 21 (VHH, pMECS-expressed; also called VHH numbered 21) VHH: QVQLQESGGGSVQTGGSLRLSCAASTSIYSLNYMAWFSQAPGKGREGVAAVYIGDGRPYYADSVKGRFTISLDSAKNTVYLQMNSLKSEDTAMYYCAAAPGPLSRHYWYTSANYDYWGQGTQVTVSS | > 20 |
| SEQ ID NO 32 (VHH, pMECS-expressed; also called VHH numbered 32) VHH: QVQLQESGGGSVQTGGSLRLSCAASTSIYSINYMAWFSQAPGKGREGVAAVYIGDGRPYYADSVKGRFTISLDSAKNTVYLQMNSLKPEDTAMYYCAAAPGPLSQHYWYTSANYDYWGQGTQVTVSS | > 20 |
| SEQ ID NO 26 (VHH, pMECS-expressed; also called VHH numbered 26) VHH: QVQLQESGGGSVQTGGSLRLSCAASTSIYNNNYMAWFSQAPGKEREGVAAVYIGDGRPYYADSVKGRFTISLDSAKNTVYLQMNSLKPEDTAMYYCAAAPGPLSRNYWYTSANYDYWGQGTQVTVSS | > 20 |
| SEQ ID NO 35 (VHH, pMECS-expressed; also called VHH numbered 35) VHH: QVQLQESGGGSVQTGGSLRLSCTASTSIYSNNYMAWFSQAPGKGREGVAAVYIDDGRPYYADSVKGRFTISLDSAKNTVYLQMNSLKPEDTAMYYCAAAPGPLSRNYWYTSANYDYWGQGTQVTVSS | > 20 |
| SEQ ID NO 23 (VHH, pMECS-expressed; also called VHH numbered 23) VHH: QVQLQESGGGSVQTGGSLRLSCAASTSLYSYNYMAWFSQAPGKGREGVAAVYVGDGRPYYADSVKGRFTISLDSAKNTVYLQMNSLKPEDTAMYYCAAAPGPLSHNYWYTSANYDYWGQGTQVTVSS | > 20 |
| SEQ ID NO 39 (VHH, pMECS-expressed; also called VHH numbered 39) VHH: QVQLQESGGGSVQTGGSLRLSCAASTSIYSNNYMAWFSQAPGKGREGVAALYIGDGRPYYADSVKGRFTIALDSAKNTVYLQMNGLKPEDTAMYYCAAAPGPLKHNYWYTSANYDYWGQGTQVTVSS | > 20 |
| SEQ ID NO 28 (VHH, pMECS-expressed; also called VHH numbered 28) VHH: QVQLQESGGGSVQTGGSLRLSCAASTSIYSNNYMAWFRQAPGKGREGVAAVYIDDGRPYYADSVKGRFTISLDSAKNTVYLQMNSLKPEDTAMYYCAAAPGPLSRHYWYTSANYDYWGPGTQVTVSS | > 20 |
| SEQ ID NO 43 (VHH, pMECS-expressed; also called VHH numbered 43) VHH: QVQLQESGGGSVQTGGSLRLSCAASSSIASNNYMAWFSQAPGKGREGVAAVYIGDGRPYYADSVKGRFTISLDSAKNTVYLQMNSLKPEDTAMYYCAAAPGPLSRNYWYTSANYDYWGQGTQVTVSS | > 20 |
| SEQ ID NO 31 (VHH, pMECS-expressed; also called VHH numbered 31) VHH: QVQLQESGGGSVQTGGSLRLSCAASTSIYSNNYMAWFRQAPGKGREGVAGVYIGDGRPYYADSVKGRFTISLDSAKNTVYLQMNSLKPEDTAMYYCAAAPGPLSHHYWYTSANYDYWGPGTQVTVSS | > 20 |
| SEQ ID NO 24 (VHH, pMECS-expressed; also called VHH numbered 24) VHH: QVQLQESGGGSVQTGGSLRLSCTASTSIYSNNYMAWFSQSPGKGREGVAAVYMDDGRPYYADSVKGRFTISLDSAKNTMYLQMNSLKPEDTAMYYCAAAPGPLSRNYWYTSANYDYWGQGTQVTVSS | > 20 |
| SEQ ID NO 15 (VHH, pMECS-expressed; also called VHH numbered 15) VHH: QVQLQESGGGSVQTGGSLRLSCAASTSIYSNNYMAWFSQAPGKGREGVAAVYIDDGRTYYADSVKGRFTISLDSAKNTVYLQMNSLKPEDTAMYYCAAAPGPLSYNYWYTSANYDYWGQGTQVTVSS | > 20 |
| SEQ ID NO 29 (VHH, pMECS-expressed; also called VHH numbered 29) VHH: QVQLQESGGGSVRTGGSLRLSCAASPSIYSNNYMAWFSQAPGKGREGVAAVYIDDGRPYYADSVKGRFTISLDSAKNTVYLQMNSLKPEDTAMYYCAAAPGPLSRNYWYTSANYDYWGQGTQVTVSS | > 20 |
| SEQ ID NO 25 (VHH, pMECS-expressed; also called VHH numbered 25) VHH: QVQLQESGGGSVQTGGSLRLSCTASTSIYSNNYMAWFSQAPGKGREGVAAVYIGDGRPYYADSVKGRFTISLDSAKNTVYLQMNSLKPEDTAMYYCAAAPGPLSHNYWYTSANYDYWGQGTQVTVSS | > 20 |
| SEQ ID NO 30 (VHH, pMECS-expressed; also called VHH numbered 30) VHH: QVQLQESGGGSVQTGGSLRLSCTASTSIYSNNYMAWFSQAPGKGREGVAAVYIDDGRPYYADSVKGRFTISLDSAKNTVYLQMNSLKPEDTAMYYCAAAPGPLSRNYWYTSANYDYWGQGTQVTVSS | > 20 |
| SEQ ID NO 38 (VHH, pMECS-expressed; also called VHH numbered 38) VHH: QVQLQESGGGSVQTGGSLRLSCAASTSIYSNNYMAWFSQAPGKGREGVAAVYIGDGRPYYADSAKGRFTISLDSAKNTVYLQMNSLKPEDTAMYYCAAAPGPLSRNYWYTSANYDYWGQGTQVTVSS | > 20 |
| SEQ ID NO 42 (VHH, pMECS-expressed; also called VHH numbered 42) VHH: QVQLQESGGGSVQTGGSLTLSCAASTSIYSYNYMAWFRQAPGKGREGVAAVYIGDGRPYYADSVKGRFTISPDSAKNTVYLQMNSLKPEDTAMYYCAAAPGPLSRHYWYTSANYDYWGPGTQVTVSS | > 20 |
| SEQ ID NO 36 (VHH, pMECS-expressed; also called VHH numbered 36) VHH: QVQLQESGGGSVQTGGSLRLSCAASTSLYSYNYMAWFSQAPGKGREGVAAVYVGDGRPYYAASVKGRFTISLDSAKNTVYLQMNSLKPEDTAMYYCAAAPGPLSHNYWYTSANYDYWGQGTQVTVSS | > 20 |
| SEQ ID NO 37 (VHH, pMECS-expressed; also called VHH numbered 37) VHH: QVQLQESGGGSVQTGGSLRLSCAASTSIYSINYMAWFRQAPGKGREGVAAVYIDDGRPYYADSVKGRFTISLDSAKNTVYLQMTSLKSEDTAMYYCAAAPGPLSRSYWYTSANYDYWGQGTQVTVSS | > 20 |
| SEQ ID NO 17 (VHH, pMECS-expressed; also called VHH numbered 17) VHH: QVQLQESGGGSVQTGGSLRLSCAASTSIYSLNYMAWFSQAPGKGREGVAAVYIDDGRPYYADHVKGRFTISLDTAKNTVYLQMNSLKPEDTAMYYCAAAPGPLSRNYWYTSANYDYWGQGTQVTVSS | > 20 |
| SEQ ID NO 13 (VHH, pMECS-expressed; also called VHH numbered 13) VHH: QVQLQESGGGSVQTGGSLRLSCAASTSIYSNNYMAWFSQNPGKGREGVAAVYIGDGRPYYADSVKGRFTISLDSAKNTVYLQMNSLKPEDTAMYYCAAAPGPLSRNYWYTSANYDYWGQGTQVTVSS | > 20 |
| SEQ ID NO 41 (VHH, pMECS-expressed; also called VHH numbered 41) VHH: QVQLQESGGGSVQTGGSLRLSCAASTSIYSNNYMAWFRQAPGKGREGVAAVYIGDGRPYYADSAKGRFTISLDSAKNTVYLQMNSLKPEDTAMYYCAAAPGPLSRHYWYTSANYDYWGPGTQVTVSS | > 20 |
| SEQ ID NO 33 (VHH, pMECS-expressed; also called VHH numbered 33) VHH: QVQLQESGGGSVQTGGSLRLSCACSTSIYSNNYMAWFSQAPGKGREGVAAVYIGDGRPYYADSVKGRFTISLDSAKNTMYLQMNSLKPEDTAMYYCAAAPGPLSQHYWYTSANYDYWGQGTQVTVSS | > 20 |
| SEQ ID NO 14 (VHH, pMECS-expressed; also called VHH numbered 14) VHH: QVQLQESGGGSVQTGGSLRLSCAASTSIYSNNYMAWFSQAPGKGREGVAAVYIDDGRPYYADSVKGRFTISLDSAKNTVYLQVNSLKPEDTAMYYCAAAPGPLSRNYWYTSANYDYWGQGTQVTVSS | > 20 |
